From the nanobody polyreactivity screen of Harvey et al. (2022)

Assay: yeast display, Sf9 membrane polyspecificity reagent, FACS + sequencing; frameworks hold sequencing errors
In short: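 A nanobody's polyreactivity label depends on the gate it was sorted from. Yeast display cells were stained with 10% biotinylated, detergent-solubilized Sf9 membrane reagent for 1 hour at 4 °C, enriched on streptavidin microbeads and sorted by FACS. The low and high (top ~1%) gates were set on anti-HA fluorescence for expression and streptavidin fluorescence for reagent binding.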

Sequence | polyreactivity (PSR sort gate)
QVQIVESGRGLVQAGGSLRLSCAASGSTFKYYAMGWYIQAPGKERELVAAISWTGGSTYYADSVKGRFTISRDNAKNTVYLQMNSLKPEDTAVYYCNALGHVQGYDYWGQGTQVTVSS | high polyreactivity
QDQLVESGGGLVQAGGSLRLSCAASGSIFKINAMGWYRQATGKERELVATITWSTGTTYYADSVKGRFTISRDNAKNTVYLQMNSLKPEDTAVYYCATDGDSTKLDYWGQGTQVTVSS | low polyreactivity
QVQLVESGGGLVQAGGSLRLSCAASGRIFDANAMGWYRQAPGKERELVAAITYSGGRTYYADSVKGRFTISRDNAKNTVYLQMNSLKPVDTAVYYCAKRYAYIYDSWGQGTQVTVSS | low polyreactivity
QVHLVESGGGLVQAGGSLRLSCAASGFTYYKYAMGWYRQAPGKEREFVDAITPSGGSTYYADSVKGRFTISRDNAKNTVYLQMNSLKPEDTAVYYCAAYYGTSRWAKMCYWGQGTQVTVSS | high polyreactivity
QVQLVESGGGLVQAGGSLRLSCAPSGGTYIYAIGWYRQAPGKERDLVAVITSRSGSTYYADSVKGRFTISRDNAKNTVYLQMISLKPEDTAVYYCAAYTRVRTDPGTSFGYWGQCTQVTVSS | high polyreactivity
QVQLVESAGGLVQAGGRLRLSCAASGRTFTYYAMGWYRQAPGKERELVAAISFSGGRTYYADSVKGRFTISRDYAKNTVYLQMNSLKPEDTAVYYCAAENYYTRYRDRDYWGQGTQVTVSS | high polyreactivity
QVQLVESGGGLVQAGGSLRLSCAASGRTFADYAMGWNRQAPGKEREFVAAITYSGGSTYYADSVKGRFTISRDNAKNTVYLQMNSLKPEDTAVYYCNARPGSSYWYDAQWGEYGYWGQGTQVTVSS | high polyreactivity
QVQLVESGGGLVQAGGSLRLTCAASGGTFRLYAMGWYRQAPGKERELVAAISSTGSTYYAASVKGRFTISRDNAKNTVYLQMNSLKPEDTAVYYCNAKLPVTSLKFDYYYWGQGTQVTVSS | high polyreactivity
QVQLVESGGGLVQAGGSLRLSCAASRSIFSAYAMGWYRQAPGKERELVAAISTSGYTNYADSVKGRFTISRDNAKNTVYLQMKSLTPEDTAVYYCAADRVYGDGTAGYGYEFDYWGQVTQVTVSS | low polyreactivity
QVQLVESGGGLVQAGGSLRLSCAASGFIFVWYAMGWYRQAPGKEREMVAAISFSGSSTYYADSVKGRFTITRDNAKNTVYLQMNSLKPEDTAVYYCAKRIAKYIPRYKFDYWGQGTQVTVSS | high polyreactivity
QVQLVESGGGLVQAGGSLRLSCAASGSILGQNGMGWYRQAPWKERELVAGITWSGGSTYYADSVKGRFTISRDNAKNTVYLQMNSLKPEDTAVYYCARRGYYAPYYYWGQGTQVTVSS | high polyreactivity
QVQLVESGGGLVQAGGSLRLSCAASGRIFSLYTMGWYRQAPGKERELVATISIGGSTNYADSVKGRFTISRDNAKNTVYLQMNSLKPEDTAVYYCATDGSIGYNDRYTNDFDYWGQGTQVTVSS | low polyreactivity
QVQLVESGGGLVQAGGSLRLSCAASGSIFFGYAMGWYRQAPGKERELVAAISTRGGRSYYADSVKGRFTISRDNAKNTVYFQMNSLKPVDTAVYYCNAASLVQAYSHADERYDYWGQGTQVTVSS | high polyreactivity
QVQLVESGGGLVQAGGSLRLSCAAAGRTVPRYTMGWYRQAPGKEMELVAAISRGGSTNYAYSVKGLFTISRDNAKNTVYLVMNSLKPEDTAVYYCNADYWYDWKSYDYWGEGTQVTVSS | high polyreactivity
QVQLEESGGGLVQAGGSLRLSCAASGRTFVWYAMGWYRQAPGKERELVAAISRSGGSTYYADSVKGRFTISRDNAKNTVYLQMNSLKPEDTAVYYCAAEFYIAPPYDYWGQGTQVTVSS | high polyreactivity
QVQLVESGGGLVQAGGSLRLSCAASGSTFVRNAMGWYRQAPGKERELVAAISTRGGSTSYADSVKGRFTISRDNAKNTVYLQMNCLKPEDTAVYYCAKVHAYSQGIRHGYWGQGTQVTVSS | low polyreactivity
QVQLVESGVGLVQAGASLRLSCAASGFIFRKNAMGWYRQAPGKERELVAAISGSGGRTYYADSVKGRFTISRDNAKNTVYLQMNSVKPEDNAVYYCNADYLSRRYSFDYWGQGTQVTVSS | high polyreactivity
QVQLVESGGGLVQARGSLRLSCAASGNTFVRNVMGWYRKAPGKERELFAAITWRSVRTDYADSVKGRFTISLDNAKNTVNLQMNSLKPEDTAVYNCAAPSASRHGEYDYWGQGTQVTVSS | low polyreactivity
QVQLVESGGGLVQAGGSLRLSCAASGSTFVTYAMGWYRQAPGKERELVAAISRSGGSTYYADSVKGRFTISRDNAKNTVYLQMNSLKPEDTAVYYCAAVIYPYYSYAHRYDYWGQGTQVTVSS | low polyreactivity
QVQLVESGGGLVQAGGSLRLSCAASGSTFVKYAMGWYRQAPGKERELVAAINRSGASTYYADSVKGRFTISRDNAKNTVYLQMNSLKPEDTAVYYCAARFSWVGYYWGQGTQVTVSS | high polyreactivity
QVQLVESGGGIVQAGGSLRLSCAASGRTFKSYAMGWYRQAPGKERELVAAISRSGDRTYYADSVKGRFTISRDNAKNTVYLQMNSLKREDTAVYYCNARAVTGDRSDDYWGQGTHVTVSS | high polyreactivity
QVQLVESGGGLVQAGGSHRLSCAASGRIIESYAMGWYRQAPGKERELVAAISSNDGSTYYADSVKGRFTISRDNAKNTVYLQMNSLKPEDTAVYDCAAELGQVDYGGPSYDYWGQGTQVTVSS | low polyreactivity

Sequence | polyreactivity (PSR sort gate)
QVQLEESGGGLVQAGGSLRLSCAASGSIFAVYAKGWYRQAPGKEREFVARISWGGGRTYYADSVKGRFTISRDNAKNTVYLQMNSLKPEDTAVYYCAATFRARPRENYWGQGTQVTVSS | high polyreactivity
QVQLVESGGGLVQAGGSLRLICAASGSIFTRNAMGWYRQAPGKEREFVAAISSSGVSTYYADSVKGRFTISRDNAKNTVYLQMISLKPEDTAVYYCAARWGTKSGRYDYWGQGTQVTVSS | high polyreactivity
QVQLVESGGGLVQAGGSLRLGCAASGSTLYSYAMGWYRQAPGKERELVASISSGASTYYADSVKGRFTISRDNAKNTVYLQMNSLKPEDTAVYYCNADAGSYHTGWVTPWGSDEYDYWGQGTQVTVSS | low polyreactivity
QVQLVESGGGLVQAGGSLRLSCAASGNIFDLYAMGWYRQAPGKERELVAAITRSSSRTYYADSVKGRFTISRDNAKNTVYLQMNSLKPEDTAVYYCNKRWITSYYTRYDYWGQGTQVTVSS | high polyreactivity
QVQLVESGGGLVQAGGSLRLSCAASGRTFFVNAMGGYRQAPGKERELVAAITWSGGSTSYADSVKGRFTISRDKAKNNVSLQLNSLKPEDTAVYYCAAEYYSYSHSYYYYGYEYWGQGTQVNVSS | high polyreactivity
QVQIVESGGGLVQAGGSLRLSCAASGITFTVYAMGWYRQAPGKVRELVAAINSGSSTNYADSVKGRFTISRDNAKNTVYLQMNSLNPEDTAVYYCAASYRKLPDKKRYGYWGQGTQVTVSS | high polyreactivity
QVQLVESGGGLVQAGGSLRLSCAASGSTFDVYAMGWYRQGPGKERELVATISNYGGDTYYADSVKGRFTISRDNAENTVYLQMNTLKPEDTAVYYCNAYLRFVDVSLDYQLLLEHDFWGQGTQVTVSS | low polyreactivity
QVQLVESGGGLGQAGGSLRLSCAASGRTVYYNGMGWYRPAPGKEREVVAAITSGGTTSYADSVKGRFTISRDNAKNTVYLQMISLKPEETAVYYSNADYWAVNYDYWGQGTQVTVSS | low polyreactivity
QVQLVESGGGLVQAGGSLRLSCAASGSIFRWYAMGWSRQAPGKERQLVAAIRGNGASTYYADSVKGRFTISRDNAKNTVYLQMNSLKPEDTAVYYCAAYPSFYHSQYGYWGQGTQVTVSS | high polyreactivity
QVQVVESGGGLVQAGGSLRLSCAASGRIFPYYTMGWYRQAPGKERDLVAAISRRGSSTYYADSVKGRFTISRDNAKNTVYLQMNSLKPEDTAVYYCAADRGGYTRTGEYDYWGQCTQVTVSS | high polyreactivity
QVHLVESGGCLVQAGGSLRLSCAASGSTFSRYAMVWYRQAPGKEREYVAGISWSGGNTYYADSVKGRFTISRDNAKNTVYLQMNSLKTEATAVYYCASDFLDYWGVYGWAEYEYWGQGTQGTVSS | low polyreactivity
QVQLEESGAGLVQAGGSLRLSCAASGYIFDKYTLGWYRQAPGKERELVAVISSRGGSTYYADSVKGRFTISRDNAKNTVYVQMNSRKPEDTAVYYCAARFYRPSVPYRYDYWGQGTQVTVSS | high polyreactivity
QDQLVESGGGLVQAGGSLRLSCAASGFTFGTYAMGWYRQAPGKERELVAAISARGGSTYYADSVKGRFTISRDNAKNTVYLQMNSLKPEDTAVYYCAAYYGRHVTPPTGYDYWGQGTQVTVSS | high polyreactivity
QVQLVESGGGLVQAGGSLRLSCAASGFILYSYAMGWYRQAPGKERELVAAINSTGSTYYADSVKGRFTISRDNAKNTVYLQMNSLKPEDTAVYYCATDPWYQTDHSYDTPYYYWGQGTQVTVSS | low polyreactivity
QVQLVESGGGLVQAGGSLRLSCAASGYIVLVYAMGWYRQAPGKERELFASITRGTRTYYADSVKGRFTISRDNAKNTVYLQMNSLKPEDTAVYYCAAEHSGYPVAFYITGYGYDYWGQGTQVTVSS | low polyreactivity
QVQLVESGGGLVQAGGSRRLSCAASGRIICVYAMGWYRQAPGNERDLVAAITIGGSTYYADSVKGRFTISRDNAMNTFYLQMNSLKPEDTAVYYCNRRYNWYLHHYDYWGQGTQVTVSS | high polyreactivity
QVQLVESGGGLVQAGGSLRLSCAASGFIFPTYAMGWYRQAPGKERELVATITSAVRTKYADSVKGRFTISRDNAKNTVYLQMNSLKPEDTAVYYSAAAYTVARFYRYYYWGQGTQVTVSS | high polyreactivity
QVQLVESGGGLVQAGGSLRLSCSASGITYGGNEMGWYRQAPGTESELVAGIDDGGSTNYADSVKGRFTISRDNAKNTVYLQMNSLKPEDTAVYYCAVQGHPPLGILPGFLFDYWGQGTQVTVSS | low polyreactivity
QVLLVESGGGLVQAGGSLRLSSAASGSIFNRYAMGWYRQAPGKDSEFVAAITYSGGSTYYADSVKGRFTISRDNAKNNVYLQMIRVKPEDTAVYYCAKAYYPKGRYGFDYWGQGTQVTVSS | high polyreactivity
QVQLVESGGGLVQAGGSLRLSCAASGGIVDSNAMGWYRQAPGKERELVAAISDSGGSTYYADSVKGRFTISRDNAKNTVYLQMNSLKPEDTAVYYCAADSDYHFVNYRFGMDYWGQGTQVTVSS | low polyreactivity
QVQLVESGGGLVQAGGSLRLSCAASGITLNGYVMRWYRQAPGKEREFVAVISSRGGSTYYADSVKGRFTISRDNAKNTVYLQMNSLKPEDTAVYYCAARYVREYNYWGQGTQVTVSS | high polyreactivity
